Data reported in patent US11141452 (dated 2021).
Read-outs that look alike come from different tables or passages of the source. Non-standard residues stand in square brackets, D forms with d. No end group written: not given here. *: point of attachment. NH(3,5-(CF3)2-benzyl) = FC(F)(F)c1cc(CN*)cc(C(F)(F)F)c1; NMePhe(4-F) = CN[C@@H](Cc1ccc(F)cc1)C(=O)O; Phe(4-F) = N[C@@H](Cc1ccc(F)cc1)C(=O)O; Dmt = Cc1cc(O)cc(C)c1C[C@H](N)C(=O)O; NMeF = CN[C@@H](Cc1ccccc1)C(=O)O; NHBn = c1ccc(CN*)cc1

How the values were obtained:
Experiment in all cases: competition
[1] = molecular target: T1, rat NK1 receptor (rat, UniProt P14600)
T1 chain: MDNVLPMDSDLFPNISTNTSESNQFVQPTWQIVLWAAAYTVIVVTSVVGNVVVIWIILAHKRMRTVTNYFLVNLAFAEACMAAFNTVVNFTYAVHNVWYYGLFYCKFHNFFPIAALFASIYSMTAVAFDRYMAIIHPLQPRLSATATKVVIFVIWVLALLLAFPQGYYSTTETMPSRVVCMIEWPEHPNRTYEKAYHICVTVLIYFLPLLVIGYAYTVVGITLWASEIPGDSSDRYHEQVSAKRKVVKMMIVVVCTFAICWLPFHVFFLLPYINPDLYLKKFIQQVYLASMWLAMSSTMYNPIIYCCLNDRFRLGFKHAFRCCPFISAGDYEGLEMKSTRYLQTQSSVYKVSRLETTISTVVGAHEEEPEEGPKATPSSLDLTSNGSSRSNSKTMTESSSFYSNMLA

[2] = molecular target: T2, human NK1 receptor (human, UniProt P25103)
T2 chain: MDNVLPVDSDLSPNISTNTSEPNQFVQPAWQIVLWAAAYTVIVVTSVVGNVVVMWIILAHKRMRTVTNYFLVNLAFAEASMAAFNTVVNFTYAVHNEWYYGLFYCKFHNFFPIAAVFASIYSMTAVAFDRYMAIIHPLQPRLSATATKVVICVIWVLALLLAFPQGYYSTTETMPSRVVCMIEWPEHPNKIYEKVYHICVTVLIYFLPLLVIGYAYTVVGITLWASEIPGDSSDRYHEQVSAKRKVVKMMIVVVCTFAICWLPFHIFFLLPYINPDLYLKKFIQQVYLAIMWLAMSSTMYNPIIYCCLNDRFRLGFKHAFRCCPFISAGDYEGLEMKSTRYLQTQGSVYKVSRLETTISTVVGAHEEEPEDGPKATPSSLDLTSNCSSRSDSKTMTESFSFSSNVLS

[3] = molecular target: mu opioid receptor (MOR) (UniProt P35372)
Chain of mu opioid receptor (MOR) (P35372 whole entry): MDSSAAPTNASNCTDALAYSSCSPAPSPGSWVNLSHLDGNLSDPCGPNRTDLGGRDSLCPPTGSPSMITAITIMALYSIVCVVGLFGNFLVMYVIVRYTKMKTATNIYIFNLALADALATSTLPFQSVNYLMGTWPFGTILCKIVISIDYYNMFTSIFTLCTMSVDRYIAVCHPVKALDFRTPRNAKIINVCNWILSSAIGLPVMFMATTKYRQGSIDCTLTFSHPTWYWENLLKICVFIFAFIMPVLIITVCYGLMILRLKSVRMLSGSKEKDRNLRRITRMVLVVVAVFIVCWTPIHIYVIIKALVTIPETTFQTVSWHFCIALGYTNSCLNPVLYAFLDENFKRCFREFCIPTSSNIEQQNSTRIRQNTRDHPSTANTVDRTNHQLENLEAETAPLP

[4] = molecular target: T3, delta opioid receptor (DOR) (UniProt P41143)
T3 chain: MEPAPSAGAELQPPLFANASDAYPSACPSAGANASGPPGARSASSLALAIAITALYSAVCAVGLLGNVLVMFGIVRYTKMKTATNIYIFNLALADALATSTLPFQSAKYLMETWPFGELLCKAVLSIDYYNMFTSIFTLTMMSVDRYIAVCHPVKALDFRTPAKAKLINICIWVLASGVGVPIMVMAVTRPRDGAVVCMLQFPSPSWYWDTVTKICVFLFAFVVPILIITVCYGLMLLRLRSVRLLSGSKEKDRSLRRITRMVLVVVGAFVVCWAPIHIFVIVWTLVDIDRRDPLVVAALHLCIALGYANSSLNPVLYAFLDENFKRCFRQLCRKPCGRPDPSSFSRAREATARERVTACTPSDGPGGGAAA

[5] = molecular target: T2, human NK1 receptor
[6] = molecular target: T1, rat NK1 receptor
[7] = molecular target: T3, delta opioid receptor (DOR)
[8] = molecular target: T1, rat NK1 receptor
[9] = molecular target: T2, human NK1 receptor
[10] = molecular target: mu opioid receptor (MOR) (UniProt P35372); remark: listed apart in the source
[11] = molecular target: T2, human NK1 receptor
[12] = molecular target: mu opioid receptor (MOR) (UniProt P35372); remark: listed apart in the source
[13] = molecular target: T3, delta opioid receptor (DOR)
[14] = molecular target: T1, rat NK1 receptor

Q: Which results are given for YPFFPLW [AKG224]?
A: Ki [1]: 33.7 nM; Ki [2]: 3.39 nM

Q: What does the source list for Y[dA]G[NMeF]QPLW (not fully specified (C-terminus)) [AKG129]?
A: Ki [3]: 7 nM; Ki [4]: 1 nM; Ki [5]: 0.83 nM

Q: With Y[dA]GF[dN]PLW-NHBn [AKG102] as the binder, how does the Ki [3] read?
A: Its Ki is 90 nM.

Q: And the Ki [4]?
A: The Ki was 54 nM.

Q: And the Ki [6]?
A: Its Ki is 133 nM.

Q: And the Ki [5]?
A: The Ki was 2.26 nM.

Q: How did the Ki [7] turn out when XAGFPLW (Dmt1, D-Ala2; C-terminal NH-Bn(3',5'-(CF3)2)) [AKG116] was run?
A: The Ki was 1 nM.

Q: And the Ki [8]?
A: The Ki was 26.9 nM.

Q: What about the Ki [9] of the same binder?
A: The Ki was 1.4 nM.

Q: What about the Ki [10] of the same binder?
A: Its Ki is 3 nM.

Q: Which results are given for Y[dA]GFQPLW (not fully specified (C-terminus)) [AKG105]?
A: Ki [3]: 38 nM; Ki [4]: 9 nM; Ki [6]: 12.5 nM; Ki [5]: 0.92 nM

Q: Which results are given for [Dmt][dA]FGYPLW (not fully specified (C-terminus)) [AKG118]?
A: Ki [11]: 2.34 nM; Ki [12]: 1 nM; Ki [13]: 3 nM; Ki [14]: 25.4 nM

Q: With Y[dA]GF[dQ]PLW (not fully specified (C-terminus)) [AKG103] as the binder, how does the Ki [3] read?
A: The Ki was 116 nM.

Q: What about the Ki [6] of the same binder?
A: Its Ki is 106 nM.

Q: And the Ki [5]?
A: The Ki was 2.71 nM.

Q: How did the Ki [1] turn out when YPFFPLW [AKG226] was run?
A: Its Ki is 31.7 nM.

Q: What about the Ki [2] of the same binder?
A: Its Ki is 5.9 nM.

Q: Which Ki [7] does the source give for Y[dA]G[NMeF]PLW-{NH(3,5-(CF3)2-benzyl)} [AKG117] here?
A: Its Ki is 237 nM.

Q: What about the Ki [8] of the same binder?
A: The Ki was 61.1 nM.

Q: What about the Ki [9] of the same binder?
A: The Ki was 3.35 nM.

Q: What about the Ki [10] of the same binder?
A: Its Ki is 27 nM.

Q: YPFFPLW [AKG222] was tested. Which Ki [1] did it give?
A: Its Ki is 32.4 nM.

Q: What about the Ki [2] of the same binder?
A: Its Ki is 4.19 nM.

Q: Y[dA]G[NMePhe(4-F)]QPLW-NHBn [AKG143] was tested. Which Ki [3] did it give?
A: Its Ki is 2 nM.

Q: What about the Ki [4] of the same binder?
A: Its Ki is 0.7 nM.

Q: What about the Ki [6] of the same binder?
A: The Ki was 21.7 nM.

Q: And the Ki [5]?
A: The Ki was 3.2 nM.

Q: Which results are given for Y[dA]G[Phe(4-F)]QPLW-NHBn [AKG142]?
A: Ki [3]: 8 nM; Ki [4]: 2 nM; Ki [5]: 5.71 nM

Q: For XAGFPLW (Dmt1, D-Ala2, Phe(4-F)4; C-terminal NH-Bn(3',5'-(CF3)2)) [AKG127], which Ki [7] is on record?
A: Its Ki is 1 nM.

Q: What about the Ki [8] of the same binder?
A: Its Ki is 29.4 nM.

Q: What about the Ki [9] of the same binder?
A: The Ki was 0.88 nM.

Q: And the Ki [10]?
A: Its Ki is 1 nM.

Q: Which results are given for Y[dA]GFNPLW (not fully specified (C-terminus)) [AKG104]?
A: Ki [3]: 51 nM; Ki [4]: 17 nM; Ki [6]: 20.2 nM; Ki [5]: 1.16 nM
